The source of these data is patent publication US20230129258A1 (Bicycle, published 2023).

“And” between values parts separate entries of the source, which are not always exact repeats. Identical values can stand only once. Starred links: 1 amine or outer side, 2 acyl side, 3 side chain; linkers in the order of their positions; H or OH if unused. Positions of bridges follow the written chain, without caps; N, C: chain ends. Non-standard residues stand in square brackets, D forms with d. Primed or numbered codes have the meaning given here. Chains are numbered I, II in the order given. No end group written: not given here. *: point of attachment. dLys(PYA)″ = D-lysine N6-(4-pentynoyl) (D-Lys(PYA)), C#CCCC(=O)NCCCC[C@@H](N[*:1])C(=O)[*:2]; TATA = O=C(CC[*:1])N1CN(C(=O)CC[*:2])CN(C(=O)CC[*:3])C1; γGlu = O=C(O)[C@H](CCC(=O)[*:2])N[*:1]; 1Nal = N[C@@H](Cc1cccc2ccccc12)C(=O)O; d1Nal = N[C@H](Cc1cccc2ccccc12)C(=O)O; Palmitoyl = CCCCCCCCCCCCCCCC(=O)*; Hyp = O=C(O)[C@@H]1C[C@@H](O)CN1; hArg = N=C(N)NCCCC[C@H](N)C(=O)O; tBuAla = CC(C)(C)C[C@H](N)C(=O)O; dK(PYA) = not defined here; NMeA = CN[C@@H](C)C(=O)O; Nle = CCCC[C@H](N)C(=O)O; Pent4ynoyl = C#CCCC(=O)*; dNMeA = CN[C@H](C)C(=O)O

The term koff denotes a measure of how fast the partners let go of each other. Read a low koff as slow dissociation. The term kon denotes the second-order rate constant of association. A high value points to fast association.

Assay [1] deals with T1, CD137 on Jurkat reporter cells (Promega kit CS196005) (UniProt Q07011 24-255, limits assumed). Description: cell-based or functional assay.
Assay [2] has as its target T1, CD137 on Jurkat reporter cells (Promega …). Description: cell-based or functional assay. The source holds these as a separate data set.
The target of assay [3] is T2, OX40 on Jurkat reporter cells (Promega CS197704) (UniProt P43489 29-277).
T2 sequence (looked up): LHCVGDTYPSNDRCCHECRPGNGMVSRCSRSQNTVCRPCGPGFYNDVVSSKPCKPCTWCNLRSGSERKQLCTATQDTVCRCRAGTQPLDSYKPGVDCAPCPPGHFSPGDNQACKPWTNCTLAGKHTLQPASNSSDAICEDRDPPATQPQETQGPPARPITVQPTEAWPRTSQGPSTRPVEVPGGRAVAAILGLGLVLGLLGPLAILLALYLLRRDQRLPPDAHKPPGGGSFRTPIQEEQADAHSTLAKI
In words: cell-based or functional assay.

The target in assay [4] is T3, human CD137 extracellular domain (human, UniProt Q07011 24-186, biotinylated where captured on the streptavidin chip).
T3 construct: extracellular domain; Section 17 says only 'Recombinant human CD137 (R&D systems)'; also called CD137 (human); Recombinant human CD137 (R&D systems)
Description: SPR (Biacore), biotinylated human CD137 captured on a streptavidin chip, BCY13272 as analyte, 1:1 fit; the text calls the off rate very slow (avidity from two CD137 bicycles). (In SPR one partner is held on a chip, and binding of the other changes the refractive index at the surface.)

For assay [5], the target named is T3, human CD137 extracellular domain. In words: SPR (Biacore), biotinylated human CD137 captured on a streptavidin chip, BCY13272 as analyte, 1:1 fit; avidity from two CD137 bicycles.
Assay [6] has as its target T4, human EphA2 protein (human, UniProt P29317 25-534, limits assumed, biotinylated).
T4 construct: Construct not described; also called EphA2 (human)
In words: SPR (Biacore), biotinylated human EphA2 captured on a streptavidin chip, BCY13272 as analyte, 1:1 fit.

Assay [7] addresses T4, human EphA2 protein. In words: SPR (Biacore T200), biotinylated EphA2 captured on streptavidin chip, 25° C.
Assay [8] addresses T3, human CD137 extracellular domain. In words: SPR (Biacore), biotinylated human CD137 captured on a streptavidin chip, BCY13272 as analyte, 1:1 fit; the text says the reported KD may be an overestimation (avidity).
The target in assay [9] is T1, CD137 on Jurkat reporter cells (Promega …). In words: cell-based or functional assay. The source holds these as a separate data set.
For assay [10] the target is unchanged. Description: cell-based or functional assay. The source holds these as a separate data set.

T1 sequence (Q07011 24-255 limits assumed): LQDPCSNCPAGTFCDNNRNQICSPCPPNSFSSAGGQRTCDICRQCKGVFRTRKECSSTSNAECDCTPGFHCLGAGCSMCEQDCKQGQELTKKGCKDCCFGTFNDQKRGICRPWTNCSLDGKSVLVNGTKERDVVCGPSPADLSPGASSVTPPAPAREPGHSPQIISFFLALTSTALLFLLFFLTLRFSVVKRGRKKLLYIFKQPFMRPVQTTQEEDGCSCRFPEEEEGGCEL
T4 sequence (P29317 25-534 limits assumed): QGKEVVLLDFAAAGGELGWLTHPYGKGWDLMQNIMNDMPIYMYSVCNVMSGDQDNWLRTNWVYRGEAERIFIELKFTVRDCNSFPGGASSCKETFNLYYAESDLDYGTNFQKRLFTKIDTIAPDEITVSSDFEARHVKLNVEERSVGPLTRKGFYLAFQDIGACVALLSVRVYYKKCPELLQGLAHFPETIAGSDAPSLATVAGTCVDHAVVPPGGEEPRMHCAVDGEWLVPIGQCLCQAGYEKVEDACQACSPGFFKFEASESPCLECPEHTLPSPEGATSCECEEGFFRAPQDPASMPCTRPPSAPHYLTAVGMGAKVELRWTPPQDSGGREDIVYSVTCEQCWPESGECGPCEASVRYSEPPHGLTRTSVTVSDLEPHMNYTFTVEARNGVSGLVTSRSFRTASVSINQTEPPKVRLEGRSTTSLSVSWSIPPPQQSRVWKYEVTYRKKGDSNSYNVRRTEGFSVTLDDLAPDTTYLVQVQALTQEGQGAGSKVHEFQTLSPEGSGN
T3 sequence (Q07011 24-186): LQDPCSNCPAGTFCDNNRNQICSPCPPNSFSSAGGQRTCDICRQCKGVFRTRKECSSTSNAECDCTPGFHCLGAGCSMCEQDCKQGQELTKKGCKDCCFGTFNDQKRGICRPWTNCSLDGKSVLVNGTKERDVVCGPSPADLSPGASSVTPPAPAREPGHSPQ

B1: BCY12487 (peptide)
peptide 1: CP[1Nal]DCM[hArg]DWSTP[Hyp]WC
peptide 2: Ac-C[tBuAla]PE[dK](Pent4ynoyl)PYCFAEPY[Nle]C
modifications: linker I:1-I:5-I:15, II:1-II:8-II:15 via TATA; not fully specified (some residues, bridges); also: chain 1 N-terminus and chain 2 dLys(PYA)4 joined by N-(acid-PEG3)-N-bis(PEG3-azide) linker
Consider B1, for which, in assay [1], the “EC50 (nM), HT1376 co-culture” value is 13 nM and the “Emax (fold induction over background), HT1376” value was found to be 12 fold over background.

B2: BCY11780 (peptide)
peptide 1: SDKCSAGWLTMCQXLHLCPSH
peptide 2: CXPEXPYCFADPYXCA
modifications: BCY8928: Ac-(SEQ ID NO: 11)-A; TATA; linker at dLys4; BCY10861: Ac-SDK-(SEQ ID NO: 53)-PSH; TATA; linker at Lys(PYA)9
Turning to B2, in [2], the “EC50 (nM), RKO co-culture” value came to 1.9 nM and the “Fold Induction over background, RKO co-culture” value was determined as 13 fold.

B3: BCY12490 (peptide)
peptide 1: CPXKCMXDWSTPXWC
peptide 2: CXPEXPYCFADPYXCA
modifications: BCY8928: Ac-(SEQ ID NO: 11)-A; TATA; linker at dLys(PYA)4; BCY12024: Ac-(SEQ ID NO: 14); TATA; linker at dLys3
For B3, in assay [1], the “EC50 (nM), HT1376 co-culture” value was found to be 0.23 nM and the “Emax (fold induction over background), HT1376” value is 70 fold over background.

B4: BCY12967 (peptide)
peptide 1: CP[1Nal]DCM[hArg]DWSTP[Hyp]WC
peptide 2: ACLYSPCWHPLNDCAK(Pent4ynoyl)
modifications: linker I:1-I:5-I:15 via TATA; linker II:2-II:7-II:14 via TATA (inferred); not fully specified (some residues); also: chain 1 N-terminus and chain 2 C-terminal Lys(PYA) joined by N-(acid-PEG3)-N-bis(PEG3-azide) linker
As to B4, the “EC50 (nM), Promega OX40 cell-activity assay in co-culture with tumor cells” value in [3] stood at 0.83 nM.

B5: BCY12761 (peptide)
peptide 1: CP[1Nal]DCM[hArg]DWSTP[Hyp]WC
peptide 2: Ac-C[tBuAla]PE[dK](Pent4ynoyl)PYCFAD[dNMeA]Y[Nle]C
modifications: linker I:1-I:5-I:15, II:1-II:8-II:15 via TATA; not fully specified (some residues, bridges); also: chain 1 N-terminus and chain 2 dLys(PYA)4 joined by N-(acid-PEG3)-N-bis(PEG3-azide) linker
Take B5: in assay [1], the “EC50 (nM), HT1376 co-culture” value stood at 0.37 nM and the “Emax (fold induction over background), HT1376” value came out at 76 fold over background.

B6: BCY11027 (peptide)
peptide 1: CPXDCMXDWSTPXWC
peptide 2: CXPEXPYCFADPYXCA
modifications: not fully specified; BCY8928: Ac-(SEQ ID NO: 11)-A; TATA; linker at dLys(PYA)4; BCY11015: [PYA]-(SEQ ID NO: 1); TATA; linker at N-term PYA
In the case of B6, the “EC50 (nM), HT1376 co-culture” value in assay [1] came out at 0.18 nM.

B7: BCY11022 (peptide)
peptide 1: CPXDCMXDWSTPXWC
peptide 2: CXPEXPYCFADPYXCA
modifications: not fully specified; BCY8928: Ac-(SEQ ID NO: 11)-A; TATA; linker at dLys(PYA)4; BCY11016: [PYA]-[B-Ala]-(SEQ ID NO: 1); TATA; linker at N-term PYA
Take B7: in [1], the “EC50 (nM), HT1376 co-culture” value came to 0.2 nM and the “Emax (fold induction over background), HT1376” value turned out to be 66 fold over background.

B8: heterotandem bicyclic peptide complex BCY13272 (peptide)
peptide 1: A[hArg]DC[Hyp]LVNPLCLEP[d1Nal]WTC
peptide 2: Ac-C[tBuAla]PE[dLys(PYA)″]PYCFADPY[Nle]CA
modifications: linker I:4-I:11-I:18, II:1-II:8-II:15 via TATA; not fully specified (bridges); also: 1:2 complex: BCY13118 + 2x BCY8928
notes: also called EphA2/CD137 heterotandem
In the case of B8, in assay [4], the off-rate (koff) was at most 1e-05 s⁻¹. Also, the on-rate (kon) in [5] worked out at 302000 M⁻¹ s⁻¹. In assay [6], the koff is 0.00102 s⁻¹ and the on-rate constant (kon) came out at 502000 M⁻¹ s⁻¹. Moreover, the Kd in assay [7] came to 2 nM. For the same molecule, in [8], the Kd is at most 0.0331 nM. In addition, in assay [9], the “EC50 (nM), A549 co-culture” value is 0.147 nM and 0.107 nM and 0.132 nM; the “Geo mean EC50/cell line, A549” value was 0.127 nM; the “Geo mean EC50/cell line, HT-29” value is 0.279 nM; the “Geo mean EC50/cell line, PC-3” value was found to be 0.117 nM.

B9: BCY13583 (peptide)
peptide 1: CP[1Nal][dD]CM[hArg]DWSTP[Hyp]WC
peptide 2: Ac-C[tBuAla]PE[dK(PYA)]PYCFADPY[Nle]CA
peptide 3: Ac-C[tBuAla]PE[dK(PYA)]PYCFADPY[Nle]CK
modifications: linker I:1-I:5-I:15 via TATA; linker II:1-II:8-II:15, III:1-III:8-III:15 via TATA (inferred); reading uncertain; also: Alexa Fluor 488 label, site not given here, linker at chain B 5 at chain C 5 to a chain's N-terminus via N-(acid-PEG3)-N-bis(PEG3-azide)
As for B9, in [1], the “EC50 (nM), HT1376 co-culture” value worked out at 1.7 nM and the “Emax (fold induction over background), HT1376” value is 63 fold over background. For the same molecule, in assay [10], the “Arithmetic mean EC50 (nM), HT1376 co-culture” value was 1.7 nM and the “Arithmetic mean EC50 (nM), MDA-MB-468 co-culture” value was 0.84 nM.

B10: BCY12760 (peptide)
peptide 1: CP[1Nal]DCM[hArg]DWSTP[Hyp]WC
peptide 2: Ac-C[tBuAla]PE[dK](Pent4ynoyl)PYCFAD[NMeA]Y[Nle]C
modifications: linker I:1-I:5-I:15, II:1-II:8-II:15 via TATA; not fully specified (some residues, bridges); also: chain 1 N-terminus and chain 2 dLys(PYA)4 joined by N-(acid-PEG3)-N-bis(PEG3-azide) linker
B10: in assay [1], the “EC50 (nM), HT1376 co-culture” value stood at 1.8 nM and the “Emax (fold induction over background), HT1376” value stood at 76 fold over background.

B11: BCY12589 (peptide)
peptide 1: {Palmitoyl-γGlu-γGlu}-CP[1Nal]KCM[hArg]DWSTP[Hyp]WC
peptide 2: Ac-C[tBuAla]PE[dK](Pent4ynoyl)PYCFADPY[Nle]CA
modifications: linker I:1-I:5-I:15, II:1-II:8-II:15 via TATA; not fully specified; also: chain 2 present twice on linker, Nectin-4:CD137 1:2, linker at B5 via N-(acid-PEG3)-N-bis(PEG3-azide), other end not in the chain
As for B11, in assay [1], the “EC50 (nM), HT1376 co-culture” value is 0.44 nM and the “Emax (fold induction over background), HT1376” value stood at 79 fold over background.
